# Test results from patent publication US20230174635A1 (UCB, published 2023).
# T1: recombinant human Gremlin-1 (human, UniProt O60565 25-184)
# T1 sequence: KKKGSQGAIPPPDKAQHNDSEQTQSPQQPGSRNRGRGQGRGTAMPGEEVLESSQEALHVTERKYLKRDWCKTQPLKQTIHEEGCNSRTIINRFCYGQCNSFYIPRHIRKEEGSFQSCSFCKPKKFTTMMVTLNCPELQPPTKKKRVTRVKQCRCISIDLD
# T2: mouse Gremlin (mouse, UniProt O70326 25-184)
# T2 sequence (looked up): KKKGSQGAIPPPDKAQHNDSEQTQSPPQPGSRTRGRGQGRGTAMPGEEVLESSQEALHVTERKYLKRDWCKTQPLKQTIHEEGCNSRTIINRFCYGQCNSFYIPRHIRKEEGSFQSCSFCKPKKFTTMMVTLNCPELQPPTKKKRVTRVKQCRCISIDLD
# T3: BMP4/7 heterodimer (human, UniProt P12644 293-408; P18075 293-431)
# T3 sequence (looked up) 1: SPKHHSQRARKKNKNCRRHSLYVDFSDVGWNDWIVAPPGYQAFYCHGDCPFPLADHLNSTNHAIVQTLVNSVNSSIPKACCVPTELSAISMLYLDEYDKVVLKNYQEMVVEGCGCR
# T3 sequence (looked up) 2: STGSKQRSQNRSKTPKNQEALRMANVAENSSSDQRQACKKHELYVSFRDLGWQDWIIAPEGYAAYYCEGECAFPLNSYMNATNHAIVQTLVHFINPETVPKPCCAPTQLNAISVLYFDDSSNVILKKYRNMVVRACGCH
# Experiments:
# Test in all cases: cell-based or functional assay
# [1] = molecular target: T1, recombinant human Gremlin-1
# mouse Gremlin = molecular target: T2, mouse Gremlin
# BMP4/7 heterodimer = molecular target: T3, BMP4/7 heterodimer
Binder,"IC50, restoration of BMP signalling blocked by human Gremlin, HEK-ID1 reporter gene assay [1]","IC50, restoration of BMP signalling blocked by mouse Gremlin, HEK-ID1 reporter gene assay (mouse Gremlin)","IC50 (geometric mean, N=2), inhibition of BMP4/7 signalling, Hek-Id1 reporter gene assay (BMP4/7 heterodimer)"
"Ab7326 (antibody, V domains shown) VH: QVQLVESGAEVKKPGATVKISCKVSGYTFTDYYMHWVQQAPGKGLEWMGLVDPEDGETIYAEKFQGRVTITADTSTDTAYMELSSLRSEDTAVYYCATDARGSGSYYPNHFDYWGQGTLVTVSS VL: not shown",1.3 nM,0.2 nM,
truncated human Gremlin-1 with N-terminal 6His-TEV tag (ligand) MGSSHHHHHHSSGENLYFQGSAMPGEEVLESSQEALHVTERKYLKRDWCKTQPLKQTIHEEGCNSRTIINRFCYGQCNSFYIPRHIRKEEGSFQSCSFCKPKKFTTMMVTLNCPELQPPTKKKRVTRVKQCRCISIDLD,,,1.7 nM
